In patent US20030235860A1, “Interactions between AR, ER, TR2, and TR4” (priority 1999, published 2003):

T1: AR (Homo sapiens, UniProt P10275, DEL79-80/DUP473-473)
T1 sequence (P10275 with tags, fused parts or gaps DEL79-80/DUP473-473): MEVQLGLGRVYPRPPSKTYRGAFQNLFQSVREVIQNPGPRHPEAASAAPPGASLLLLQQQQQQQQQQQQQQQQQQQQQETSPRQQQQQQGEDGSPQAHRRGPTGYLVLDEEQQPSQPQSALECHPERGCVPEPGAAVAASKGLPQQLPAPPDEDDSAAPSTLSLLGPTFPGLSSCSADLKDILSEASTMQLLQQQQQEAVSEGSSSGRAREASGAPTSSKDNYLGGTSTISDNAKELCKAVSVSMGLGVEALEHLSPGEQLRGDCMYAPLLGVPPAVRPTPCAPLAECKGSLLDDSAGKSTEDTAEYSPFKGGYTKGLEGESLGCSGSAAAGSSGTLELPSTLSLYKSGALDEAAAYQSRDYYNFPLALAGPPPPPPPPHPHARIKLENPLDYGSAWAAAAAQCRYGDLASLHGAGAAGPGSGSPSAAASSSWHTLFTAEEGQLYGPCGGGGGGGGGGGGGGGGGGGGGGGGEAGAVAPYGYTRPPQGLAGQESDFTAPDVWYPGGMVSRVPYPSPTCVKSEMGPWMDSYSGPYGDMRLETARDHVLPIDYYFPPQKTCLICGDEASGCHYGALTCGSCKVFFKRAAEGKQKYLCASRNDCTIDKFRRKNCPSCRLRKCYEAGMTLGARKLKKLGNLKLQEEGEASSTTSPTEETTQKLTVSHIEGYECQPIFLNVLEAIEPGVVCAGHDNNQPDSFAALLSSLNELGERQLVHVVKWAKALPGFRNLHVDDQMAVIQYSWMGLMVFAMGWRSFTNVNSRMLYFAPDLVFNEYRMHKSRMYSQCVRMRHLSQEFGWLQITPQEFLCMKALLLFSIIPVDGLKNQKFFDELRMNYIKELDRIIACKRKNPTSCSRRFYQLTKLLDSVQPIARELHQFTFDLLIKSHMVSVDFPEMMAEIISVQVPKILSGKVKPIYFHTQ


Target: T1, AR
Assay: AR-mediated transactivation reporter assay (MMTV / PSA reporters)
Assay type: cell-based
Parameters: A full-length AR(pSG5AR) was co-transfected with GAL4-TR4E; expressed in transfected cells; host or cells: COS, H1299, CHO, DU145, PC-3
Settings: for Transactivation by the AR receptor: similar procedures, no details given; for Activity AR (effect of regulator on transcription activity): Table 5
From the text: Cells were routinely maintained in DMEM with 10% heat-inactivated fetal bovine serum. The cells were transfected using a modified calcium phosphate precipitation method, Mizokami, & Chang, J: Biol. Chem. 269,25655-25659 (1994), or SuperFect (Qiagen). To normalize the transfection efficiency, the (3-galactosidase expression ver and pRL-TK were co-transfected in CAT assay and in Dual-luciferase reporter assay system (Promega), respectively.
Like TR4, AR itself acts as a transcription factor to activate many androgen target genes. 500 ng of MMTV-Luc (FIG. 4A), or PSA-Luc (FIG. 4B), were co-transfected with 40 ng pCMV-AR (lane 2-3) with increasing amounts of pCMX-TR4 (as indicated in FIG. 4). […] After 16-18 hours incubation, cells were harvested for Dual-rnciferase reporter assay. As expected, in COS, H1299, and CHO cells, AR activated MMTV luciferase activity in a DHT-dependent manner (FIG. 4A, lanes 2 and 3), which could then be repressed by the addition of TR4 (lanes 6 to 8). […] Similar suppression effects also occurred when the MMTV-ruciferase reporter was replaced with the PSA-Iuciferase reporter, another AR target gene (FIG. 4B).
As GR and PR can also induce MMTV—luciferase reporter, Beato, M., Ce//56, 335-344 (1989), determining if TR4 could also repress OR- or PR-mediated transactivation was analyzed. Three μg of MMTV-Luc was co-transfected with 4 μg of pCMX-TR4 in the presence of 1 μg of pSG5AR, pSG5GR, or pSG5PR by modified calcium-phosphate method. […] Dual-luciferase reporter assays were performed. PRL-TK was used to normalize the transfection efficiency. […] Similar results were observed when the same experiments of AR-mediated transactivation were repeated in DU145 cells.
Human prostate cancer PC-3 cells were maintained in DMEM containing penicillin (25 units/ml), streptomycin ([…]), and 5% FCS. Human prostate cancer LNCaP cells were maintained in RPMI 1640 containing penicillin (25 units/ml), streptomycin ([…]), and 10% FCS. PC-3 cell were transfected using the calcium phosphate precipitation method as described previously [Mu X. M. et al. (1998) Endocrine 9:27-32], and LNCaP cells were transfected by using Superfect™ according to the manufacturer's procedures (Qiagen, Chatsworth, Calif.). CAT assay was performed as described previously [Lee Y. et al. (1999) Proc Natl Acad Sci USA 96:14724-14729], and is herein incorporated by reference at least for material related to the CAT assays].

Molecule	Transactivation by the AR receptor	MMTV-CAT and PSA-CAT activity (PC-3 cells, 10 nM DHT, 2, 4 and 7 μg pCMV-TR2)	AR-mediated transcription (MMTV-Luc) (PC-3 cells, Example 2)	Activity AR (effect of regulator on transcription activity)	AR-activated MMTV luciferase activity (similar with PSA-luciferase) (COS, H1299 and CHO cells, 10 nM DHT, increasing pCMX-TR4)	AR-mediated MMTV-luciferase transactivation (H1299 cells (similar in DU145), 4 μg pCMX-TR4, 10 nM DHT)
RXR: retinoid X receptor, another member of the steroid receptor superfamily	suppress	–	–	–	–	–
TR2: human testicular orphan nuclear receptor 2, 603 amino acids (protein, UniProt P13056 1-603, looked up, full-length, human testicular orphan nuclear receptor 2, 603 amino acids) MATIEEIAHQIIEQQMGEIVTEQQTGQKIQIVTALDHNTQGKQFILTNHDGSTPSKVILARQDSTPGKVFLTTPDAAGVNQLFFTTPDLSAQHLQLLTDNSPDQGPNKVFDLCVVCGDKASGRHYGAVTCEGCKGFFKRSIRKNLVYSCRGSKDCIINKHHRNRCQYCRLQRCIAFGMKQDSVQCERKPIEVSREKSSNCAASTEKIYIRKDLRSPLTATPTFVTDSESTRSTGLLDSGMFMNIHPSGVKTESAVLMTSDKAESCQGDLSTLANVVTSLANLGKTKDLSQNSNEMSMIESLSNDDTSLCEFQEMQTNGDVSRAFDTLAKALNPGESTACQSSVAGMEGSVHLITGDSSINYTEKEGPLLSDSHVAFRLTMPSPMPEYLNVHYIGESASRLLFLSMHWALSIPSFQALGQENSISLVKAYWNELFTLGLAQCWQVMNVATILATFVNCLHNSLQQDKMSTERRKLLMEHIFKLQEFCNSMVKLCIDGYEYAYLKAIVLFSPDHPSLENMEQIEKFQEKAYVEFQDYITKTYPDDTYRLSRLLLRLPALRLMNATITEELFFKGLIGNIRIDSVIPHILKMEPADYNSQIIGHSI	suppress	strongly suppresses	suppress	Down	–	–
TR4: human testicular orphan nuclear receptor 4, SEQ ID NO:16; expressed from plasmid or in vitro translated (protein) MTSPSPRIQIISTDSAVASPQRIQGSEPASGPLSVFTSLNKEKIVTDQQTGQKIQIVTAVDASGSPKQQFILTSPDGAGTGKVILASPETSSAKQLIFTTSDNLVPGRIQIVTDSASVERLLGKTDVQRPQVVEYCVVCGDKASGRHYGAVSCEGCKGFFKRSVRKNLTYSCRSSQDCIINKHHRNRCQFCRLKKCLEMGMKMESVQSERKPFDVQREKPSNCAASTEKIYIRKDLRSPLIATPTFVADKDGARQTGLLDPGMLVNIQQPLIREDGTVLLATDSKAETSQGALGTLANVVTSLANLSESLNNGDTSEIQPEDQSASEITRAFDTLAKALNTTDSSSSPSLADGIDTSGGGSIHVISRDQSTPIIEVEGPLLSDTHVTFKLTMPSPMPEYLNVHYICESASRLLFLSMHRARSIPAFQGLGQDCNTSLVRACWNELFTLGLAQCAQVMSLSTILAAIVNHLQNSIQEDKLSGDRIKQVMEHIWKLQEFCNSMANWDIDGYEYAYLKAIVLFSPDHPGLTSTSQIEKFQEKAQMELQDYVQKTYSEDTYRLARILVRLPALRLMSSNITEELFFTGLIGNVSIDSIIPYILKMETAEYNGQITGVSL	–	–	–	Down	repressed	repress
